Reference: patent publication US9809653B2, “Anti-LAMP1 antibodies and antibody drug conjugates, and uses thereof” (SANOFI, priority 2012, dated 2017)

Tests used:
Assay type in all cases: binding
[1] = system: cynomolgus monkey LAMP1 expressed transiently at the cell surface of HEK293; assay: FACS on HEK293 cells transiently transfected with cynomolgus LAMP1; settings: transient HEK293
Excerpt: LAMP1 Coding DNA Sequence, RefSeq NM_005561.3 (SEQ ID NO: 23) was cloned internally. The CDS of Macaca mulatta LAMP1, RefSeq XP_001087801 (SEQ ID NO: 27) was also cloned internally. The predicted sequences of mature LAMP1 from Macaca mulatta and Macaca fascicularis are identical to 99%, said sequence differing by one additional Leucin at position 11 of Macaca mulatta (SEQ ID NO: 27), i.e. in the signal peptide. The mature LAMP1 proteins of Macaca mulatta and Macaca fascicularis are identical. Therefore the secreted LAMP1 used in the following example is referred to cynomolgus monkey. Both CDS were cloned into mammalian expression plasmids under CMV enhancer/promoter and SV40 polyA signals. HEK293 cells (Invitrogen; #K9000-10.) were transiently transfected with human LAMP1 or cynomolgus LAMP1 plasmids using FreeStyle™ MAX 293 Expression System according to the manufacturer's instructions. […] 100 μL/well of goat anti-mouse IgG conjugated with Alexa647 (Invitrogen; #A2135) was added for 45 min at 4° C. and washed three times with PBS 1% BSA. The antibody binding was evaluated after centrifugation and resuspension of cells by adding 200 μl/well PBS 1% BSA and read using Guava® easyCyte™ 8HT Flow Cytometry System. EC50 values were estimated using BIOST@T-SPEED software.

[2] = system: cynomolgus monkey LAMP1 protein (SEQ ID NO: 29); assay: ELISA on cynomolgus monkey LAMP1; settings: FIG. 3
Sequence of cynomolgus monkey LAMP1 protein (SEQ ID NO: 29) (as listed by the source): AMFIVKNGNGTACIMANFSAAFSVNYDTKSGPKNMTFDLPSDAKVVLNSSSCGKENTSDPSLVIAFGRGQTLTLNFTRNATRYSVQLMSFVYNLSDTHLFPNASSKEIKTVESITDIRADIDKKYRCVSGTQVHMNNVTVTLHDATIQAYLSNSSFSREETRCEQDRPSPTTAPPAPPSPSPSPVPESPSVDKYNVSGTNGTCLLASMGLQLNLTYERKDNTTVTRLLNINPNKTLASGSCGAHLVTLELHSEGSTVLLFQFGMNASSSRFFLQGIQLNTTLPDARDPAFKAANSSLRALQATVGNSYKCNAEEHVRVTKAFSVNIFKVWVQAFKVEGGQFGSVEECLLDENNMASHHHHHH
Procedure: Extracellular domain of LAMP1 of human (Ala29-Met382 of SEQ ID NO: 24) and cynomolgus monkey LAMP1 (Ala27-Met380 of SEQ ID NO: 39) were prepared as described in example 6.2. […] The antibody binding was visualized by adding TMB-H2O2 buffer and read at a wavelength of 450 nm.
Antibody MAb4 was assessed for its ability to bind primate LAMP1 protein by enzyme-linked immunosorbent assay (ELISA) assay as described in example 4.7 and EC50 values determined as described in example 6.2.

[3] = biological target: T1, Alascan LAMP1 transmembrane proteins (hLAMP1_ΔGYQTI mutants) (Homo sapiens, UniProt P11279, D150A); assay: Ala scan of LAMP1 transmembrane proteins, flow cytometry; settings: pXL6085, D150A in hLAMP1_ΔGYQTI; loss = decrease of more than 50% of the mean fluorescence
T1 construct: expressed in transfected cells; host or cells: HEK293 (293-F), transient transfection
T1 sequence (P11279 with tags, fused parts or gaps D150A): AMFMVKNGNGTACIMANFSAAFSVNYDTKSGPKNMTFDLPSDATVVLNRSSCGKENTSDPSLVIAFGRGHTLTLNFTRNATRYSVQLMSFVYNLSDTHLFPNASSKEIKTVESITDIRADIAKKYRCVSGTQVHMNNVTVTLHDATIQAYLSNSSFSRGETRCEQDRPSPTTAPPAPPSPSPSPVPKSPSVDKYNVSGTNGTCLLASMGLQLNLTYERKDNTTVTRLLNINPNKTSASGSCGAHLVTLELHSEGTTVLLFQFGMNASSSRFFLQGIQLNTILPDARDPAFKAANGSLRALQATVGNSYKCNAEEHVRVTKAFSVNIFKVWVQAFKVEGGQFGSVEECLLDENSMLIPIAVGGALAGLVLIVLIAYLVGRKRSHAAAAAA
Excerpt: (§1) Individual residues identified in example 6.5 and not involved in β-strand structure have been individually replaced by an alanine residue in the LAMP1 sequence derived from hLAMP1_ΔGYQTI and encoded in plasmid pXL5626 (example 6.4). A total of 21 plasmids were engineered from pXL5626 (see Table 19) and used to assay LAMP1 expression at the cell membrane of HEK293 cells after transient transfection. Two days post transfection cells were processed, analyzed by flow cytometry (Guava® easyCyte™ 8HT) as mentioned in example 4.7, and the mean fluorescence was recorded. This fluorescence represents a semi-quantitative assessment of binding. Loss of binding is reported on Table 19 when there is a decrease of more than 50% of the mean fluorescence compared to the control protein encoded from pXL5626.

[4] = biological target: T2, Alascan LAMP1 transmembrane proteins (hLAMP1_ΔGYQTI mutants) (Homo sapiens, UniProt P11279, I149A); assay: as above; settings: pXL6070, I149A in hLAMP1_ΔGYQTI; loss = decrease of more than 50% of the mean fluorescence
T2 construct: expressed in transfected cells; host or cells: HEK293 (293-F), transient transfection
T2 sequence (P11279 with tags, fused parts or gaps I149A): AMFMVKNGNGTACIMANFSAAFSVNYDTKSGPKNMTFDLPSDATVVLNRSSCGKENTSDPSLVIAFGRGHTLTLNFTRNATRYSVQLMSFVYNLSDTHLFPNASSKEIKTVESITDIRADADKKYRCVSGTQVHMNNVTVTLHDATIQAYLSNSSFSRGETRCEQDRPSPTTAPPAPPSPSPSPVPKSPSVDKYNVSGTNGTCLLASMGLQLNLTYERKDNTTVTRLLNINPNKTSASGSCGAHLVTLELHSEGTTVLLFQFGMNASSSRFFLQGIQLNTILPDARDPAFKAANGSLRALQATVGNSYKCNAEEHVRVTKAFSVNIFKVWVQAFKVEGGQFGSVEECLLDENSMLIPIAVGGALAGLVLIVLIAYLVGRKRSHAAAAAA
Excerpt: as §1

[5] = biological target: T3, Alascan LAMP1 transmembrane proteins (hLAMP1_ΔGYQTI mutants) (Homo sapiens, UniProt P11279, R186A); assay: as above; settings: pXL6081, R186A in hLAMP1_ΔGYQTI; loss = decrease of more than 50% of the mean fluorescence
T3 construct: expressed in transfected cells; host or cells: HEK293 (293-F), transient transfection
T3 sequence (P11279 with tags, fused parts or gaps R186A): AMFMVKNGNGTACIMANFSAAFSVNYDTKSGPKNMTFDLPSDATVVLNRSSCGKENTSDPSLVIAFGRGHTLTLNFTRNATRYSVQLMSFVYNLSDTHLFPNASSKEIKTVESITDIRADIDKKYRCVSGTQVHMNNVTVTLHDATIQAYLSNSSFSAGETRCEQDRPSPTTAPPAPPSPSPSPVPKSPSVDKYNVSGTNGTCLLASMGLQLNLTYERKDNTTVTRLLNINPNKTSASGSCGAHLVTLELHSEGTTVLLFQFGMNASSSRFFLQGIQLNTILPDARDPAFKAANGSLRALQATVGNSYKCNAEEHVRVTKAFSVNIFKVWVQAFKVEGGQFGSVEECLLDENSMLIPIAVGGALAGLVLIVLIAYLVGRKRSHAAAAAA
Excerpt: as §1

Sequence of cynomolgus monkey LAMP1 expressed transiently at the cell surface of HEK293 (as listed by the source): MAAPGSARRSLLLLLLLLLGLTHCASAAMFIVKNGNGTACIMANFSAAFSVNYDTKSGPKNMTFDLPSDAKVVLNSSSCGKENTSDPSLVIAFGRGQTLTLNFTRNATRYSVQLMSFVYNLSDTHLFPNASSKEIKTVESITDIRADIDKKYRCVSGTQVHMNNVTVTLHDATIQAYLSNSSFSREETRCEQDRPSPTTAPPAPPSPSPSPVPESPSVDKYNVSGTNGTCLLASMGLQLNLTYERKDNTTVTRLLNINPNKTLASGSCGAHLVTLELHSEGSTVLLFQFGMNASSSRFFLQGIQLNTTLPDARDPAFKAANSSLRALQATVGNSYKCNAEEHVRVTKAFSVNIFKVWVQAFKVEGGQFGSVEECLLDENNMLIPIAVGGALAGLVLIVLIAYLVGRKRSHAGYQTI

B1: MAb1: murine monoclonal anti-LAMP1 antibody, VH SEQ ID NO: 1, VL SEQ ID NO: 5 (antibody, V domains shown)
VH: QVQLQQSGAELVKPGASVKMSCKASGYIFTNYNIHWVKKSPGQGLEWIGAIYPGNGDAPYSQKFKDKATLTADKSSSTTYMQLSRLTSEDSAVYYCVRANWDVAFAYWGQGTLVSVSA
VL: DIQMTQSPPSLSASLGGKVTITCKASQDIDRYMAWYQDKPGKGPRLLIHDTSTLQPGIPSRFSGSGSGRDYSFSISNLEPEDIATYYCLQYDNLWTFGGGTKLEIK
modifications: Antibody Fragment; antibody fragment
Q: Which results are given for B1?
A: EC50 [1]: 44 nM; Binding affinity, cynomolgus monkey LAMP1 versus human LAMP1 [2]: in the same range; Binding to mAb, Alascan [3]: Binding loss; Binding to mAb, Alascan [4]: Binding loss; Binding to mAb, Alascan [5]: Binding loss
